# Laboratory results: paper PMC9537296, “A novel glucagon analog with an extended half-life, HM15136, normalizes glucose levels in rodent models of congenital hyperinsulinism” (Scientific Reports, 2022)
# Assays:
# FcγRIA = FcγRIA (UniProt P12314); test: SPR; BIACORE T200, 25 °C; FcγRs immobilised by amine coupling on CM5 chips; test materials flowed over (HMC001 and I.V.-Globulin SN 31.25-500 nM, HM15136 30.38-486 nM); steady-state affinity fit
# FcγRIIA = FcγRIIA (UniProt P12318); test: as above
# FcγRIIIA = FcγRIIIA (UniProt P08637); test: as above
# FcγRIIIB = FcγRIIIB (UniProt O75015); test: as above
# [1] = target: human glucagon receptor (human) (UniProt P47871)
# FcRn = FcRn (UniProt P55899); test: SPR; association with FcRn at pH 6.0, dissociation at pH 7.4
# Sequence of FcγRIIIB (O75015 17-200): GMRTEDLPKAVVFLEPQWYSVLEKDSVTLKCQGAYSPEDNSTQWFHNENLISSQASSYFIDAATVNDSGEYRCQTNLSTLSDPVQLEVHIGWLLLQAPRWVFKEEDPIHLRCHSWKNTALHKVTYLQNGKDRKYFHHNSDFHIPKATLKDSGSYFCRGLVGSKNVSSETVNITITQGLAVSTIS
# Sequence of FcγRIIIA (P08637 17-208): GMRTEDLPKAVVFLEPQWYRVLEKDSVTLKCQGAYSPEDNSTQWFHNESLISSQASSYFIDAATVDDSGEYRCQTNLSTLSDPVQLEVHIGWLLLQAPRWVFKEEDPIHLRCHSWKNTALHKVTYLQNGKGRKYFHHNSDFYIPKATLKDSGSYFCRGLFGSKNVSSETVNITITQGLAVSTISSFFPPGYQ
# Sequence of FcγRIIA (P12318 34-217): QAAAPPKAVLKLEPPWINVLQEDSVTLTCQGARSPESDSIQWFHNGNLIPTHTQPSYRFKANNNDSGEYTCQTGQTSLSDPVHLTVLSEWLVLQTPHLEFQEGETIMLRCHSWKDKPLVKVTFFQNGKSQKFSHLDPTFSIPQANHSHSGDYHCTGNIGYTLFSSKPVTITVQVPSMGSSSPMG
# Sequence of FcγRIA (P12314 16-292): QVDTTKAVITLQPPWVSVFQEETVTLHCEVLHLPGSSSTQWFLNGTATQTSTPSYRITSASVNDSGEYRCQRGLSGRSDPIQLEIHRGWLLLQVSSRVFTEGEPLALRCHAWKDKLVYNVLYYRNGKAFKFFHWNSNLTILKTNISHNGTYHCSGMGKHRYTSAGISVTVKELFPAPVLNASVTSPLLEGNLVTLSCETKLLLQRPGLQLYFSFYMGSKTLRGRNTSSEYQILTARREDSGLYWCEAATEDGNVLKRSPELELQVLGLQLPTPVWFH
Kd (FcγRIA) [nM],Kd (FcγRIIA) [nM],Kd (FcγRIIIA) [nM],Kd (FcγRIIIB) [nM],EC50 of intracellular cAMP generation in hGCGR/CHO cells (0.0015 to 1555.2 nM HM15136) [1] [nM],Ka (FcRn),Substance
26.7,184,209,1590,,,IgG1 (=I.V.-Globulin SN) (antibody)
,,,,0.024,420000,HM15136
